We go through two molecules from patent publication US20150369821A1 (Pieris, published 2015).

Assay [1] deals with T1, non-modified Hepcidin-25 (human, not fully specified).
T1 peptide: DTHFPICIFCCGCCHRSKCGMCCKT
Nature of the assay: cell-based or functional assay.

The target of assay [2] is T1, non-modified Hepcidin-25. Nature of the assay: competition ELISA, non-modified Hepcidin-25 in solution (25 pM). For orientation: An ELISA detects its analyte on a solid surface through an enzyme-linked reagent.

B1: hepcidin-specific lipocalin mutein of SEQ ID NO: 10 (designed binder)
chain: QDSTSDLIPAPPLSKVPLQQNFQDNQFHGKWYVVGLAGNEILREDKDPMKMWATIYELKEDRSYNVTIVMFLAKKCEYLFQTFVPGSQPGEFTLGDIKSSPGRTSGLVRVVSTNYNQHAMVFFKVVWQNREVFWITLYGRTKELTPELKENFIRFSKSLGLPENHIVFPVPIDQCIDGF
notes: Mutein of human NGAL (lipocalin 2); also called hNGAL mutein
As a reminder, the IC50 is the concentration that inhibits the measured activity by half. Read a high IC50 as a need for much substance. Regarding B1, the “In Vitro Neutralization Activity Assay, IC50 [nM] (cell-based hepcidin-induced internalization of ferroportin-GFP)” value in assay [1] amounted to 31 nM. In assay [2], the half-inhibitory concentration (IC50) worked out at 0.1 nM.

B2: hepcidin-specific lipocalin mutein of SEQ ID NO: 8 (designed binder)
chain: QDSTSDLIPAPPLSKVPLQQNFQDNQFHGKWYVVGLAGNEVLREDKDPMKMWATIYELKEDKSYNVTIVMPLAEKCEYLFQTFVPGSQPGEFTLGGIKSGPGRTSGLVRVVSTNYNQHAMVFFKVVWQNREVFWVTLYGRTKELTSELKENFIRFSKSLGLPENHIVFPVPIDQCIDG
notes: as for B1
For the molecule B2, the “In Vitro Neutralization Activity Assay, IC50 [nM] (cell-based hepcidin-induced internalization of ferroportin-GFP)” value in assay [1] amounted to 25 nM. The molecule also came in with a half-maximal inhibitory concentration (IC50) in assay [2] of 0.18 nM.
